Results as given in patent publication US20040234623A1.

Target: rabbit anti-human IDO polyclonal antibody (raised against the KLH-conjugated peptide of SEQ ID NO: 1, affinity purified)
Experiment: flow cytometry of IFNgamma-activated monocyte-derived macrophages; antibody pre-adsorbed with immunizing peptide (competition against cellular IDO)

percent reduction of flow cytometry signal: > 95%
Binder: LIESGQLRERVEKLNMLC [immunizing peptide … (SEQ ID NO: 1), based on human IDO]
